Reference: the nanobody polyreactivity screen of Harvey et al. (2022)

Assay: yeast display, Sf9 membrane polyspecificity reagent, FACS + sequencing; frameworks hold sequencing errors
Method in brief: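 Genes from sorted yeast were amplified by colony PCR, read by MiSeq 2 × 250 sequencing and filtered on CDR length. These cells carried a synthetic nanobody library in Saccharomyces cerevisiae BJ5465 and were sorted by FACS into low and high (top ~1%) gates on anti-HA and streptavidin fluorescence. Polyreactivity is labelled according to the gate of origin.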

Row | Sequence | polyreactivity (PSR sort gate)
1 | QVKRVESGGVLVQAGGSLRLSCAASGFIFLLNDMGWYRQAHGKERDLVAAISRGGGSTYYADSVKGRFTISRDNAKNTVYLQMNSLKPEDTAVYYCAAKPGKTPLTGHRGPYDTGYGYCGQGTQVTVSS | low polyreactivity
2 | QVQLVESGGGLVQAGGSLRLSCAASGFTFDNYVMGWYSQAPGKERELVAAISKSGTSTYYADSVKGRFTISRDNAKNTVYLQMNSLKPEDTAVYYCAAALPGYGDYYYWGQGTQVTVSS | high polyreactivity
3 | QVQLVESGAGLVQAGGSLRLSCAPSGSTFGDNAMGWYRQAPGKERELVAAISSGGGSTYYADSVKGRFTISRDNAKNTVYLQMNSLKPEDTAVYYCAADGTLTLYRYILDYWGQGTQVTVSS | low polyreactivity
4 | QVQLVESGGGLVQAGGSLRLSCAASGYIFKKYAMGWYRQAPGKEREFVAAISISGGRTYYADSVKGRFTISRDNAKNTVYLQMNSLKPEDTAVYYCNKVHYGRRHSYSGAIYGEDYWGQGTQVTVSS | high polyreactivity
5 | QVQLVESGGGLVQAGGSLRLSCAASGLTFYRNVMGWYRQAPGKERELVAVITSGGRTNYADSVKGRFTISRDNAKNTVYLQMNSLKPEDTAVYYCNTALSSRSNKMYYWGQGTQVTVSS | high polyreactivity
6 | QVKLVESGRGLVQAGGSLRLSCAASGITFRSYAMGWYINATGKERELVATLSSSGGNTNYADSVKGRFTISRDNAKNTVYLQMNSLKPEDTAVYYCAAELWRYYYVVPGRYDDWGQGTQVTVSS | high polyreactivity
7 | QVQLVESGGGLVQAGGSLRLSCAASGFTFRWYAMGWYRQAPGKERELVAAITGSGGSTYYADSVKGRFTISRDNAKNTVYLQMNSLKPEDTAVYYCNRYGVRYYRYDYWGQGTQVTVSS | high polyreactivity
8 | KVQLVESGGRVVQAGGSLRLSCAASGSIFGYNDMGWYRPAPGKERELVATITWGGGRTRYADSVKGRFTISRDNAKKTVYLQMNSLKPEETAVYYCARDRGKITPYDYWGQGTQVTVSS | low polyreactivity
9 | QVQLVESGGGLVQAGGSLRLSCAASGSIFCDNAMGWYRQEPGKERELVAAISIVGSTSYADSVKGRFTISRDNANNTVYLQMNSLKPEDTAVYYCAAENVRSDTGFDYWGQGTQVTVSS | low polyreactivity
10 | QVQLVESGGGLVQAGGSLRLSCAASGSIFWGIAMGWYRQAPGTERELVAAISWGGGRTYYADSVKGRFTLSRDNAKNTVYLQMNSLKPEDTAVYYCNTRYPYVVSTGYDYWGQGTQVTVSS | high polyreactivity
11 | QVQLVESGGGLVQAGGSLRLSCAASGFSFYRYAMGWYRQAPAKERELVARTYYADSVKGRFTISRDNAKNTVYLQMNSLKPEDTAVYYCNKDLELEYRYEYWGQGTQVTVSS | low polyreactivity
12 | QVKLVESGGGLVQAGGSLRLSCAASGIIFEVYAMGWYRQAPGKERELVAAITLSSGGITYYADSVKGRFTISRDYAKNTVYLQMNSLKPEDTAVYYCAAQHDNFSGPFEYWGQGTQVTVSS | low polyreactivity
13 | QVQLVESGRGLVQAGGSLRLSCAASGSILTYYTMGWYRQAPGKERELVAAITRRGGSTYYADSVKGRFTISRDNAKNTVYLQMNRLKPEDTAVYYCNRVLSYHRHKLGMGYWGQGTHVTVSS | high polyreactivity
14 | QVQLVESGGGLVQAGGSLRLSCAASGRTFFVNAMGWYRQAPGKERELVATITFSGDSTYYADSVKGRFSISRDNAKNTVYLQMNSLKPEDTAVYYCAAYQGQKGYDYWGQGTQVTVSS | high polyreactivity
15 | QVQLVESGGGLVQAGGSLRLSCAASGFTFRYYAMGWYRPAPGKERELVAAISSGGRTNYADSVKGRFTISRDNAKNTVYLQMNSLKPEDTAVYYCATASRRGDPRLRFYYWGQGTQVTVSS | high polyreactivity
16 | QVQLVESGGGLVQAVGSLRLSCAASGFTIIDNAMGWYRQARGKERELVAAISISGGRTYYADSVKGRFTISRDNAKNTVYLQMNSLKPEDTAVYYCAAGKHRRDDYCGQGTQVTVSS | high polyreactivity
17 | QVQLVESGGGLVQAGGSLSLSCAASGSIFYGNAMGWYRQEPGKERELVAAITYGTSSTYYADSVKGRFTISRDKAKNTVYLQMNSLKPEDTAVYYCAADAKSHPTTRNYVGSPMDYWGQGTQVTVSS | low polyreactivity
18 | QLQLVESGGGLVQAGGSLRLSCAASGSIFAIYAMGWYRQAPGKERELVAAISDGGGTNYADSVKGRFTISRDNAKNTVYLQMNSLKPEDTAVYYCAADLGWSTYVSNGPKGYDHWGQGTQVTVSS | low polyreactivity
19 | QVQLVESGGGLVQAGGSLRLSCAASGSTFWGNAMGWYRQAPGKERELVAAISNGGSTNYADSVKGRFTISRDNAKNTVYLQMNSLKPEDTAVYYCAADGHTSNGVSLHGYWGQGTQVTVSS | low polyreactivity
20 | QVQLVESGGGLVQAGGSLRISCAASGSNFTQYDMGWYRQAPGKERELVAAITSGGSTDYADSVKGRFTISRDNAKNTVYLQMNSLKPEDTAVYYCNAEAYPYWYRGASREYDYWGQGTQVTVSS | low polyreactivity
21 | QVQLVESGGGLVQAGGILRLSCAASGRTFAPYTMGWYRQAPGKERELVAVITRRDGRTYYADSVKGRFTISRDNAKNTFYLQMKSLKPEDNAVYYCCFLPADWYRPVRYLRTDSDYWGQGTKVTVSS | low polyreactivity
22 | QVQLVESGGGLVQAVGSLRLSCAASGRIFGYYVMGWYRQAPGKERELVAAITSNGGSTYYADSVKGRFTFSRDNAKNTVYLQMNSLKPEDTAVYYGNKDKRYYRYGYWGQGTQVTVSS | high polyreactivity

Row | Sequence | polyreactivity (PSR sort gate)
23 | QVQLVESVGGLLQAGGSLRLSCAASGFTFSGNGRGWYRQAPGKERELVAAITSTGNTYYADSVKGRFTISRDNAKKTVYLQMNRLKPEDTAVYYCARRGDLLYDYWGQGTQVTVSS | low polyreactivity
24 | QVQLVESGGGLVQAGCSLRLSCAASGLTFAKYAMGWYRHAPGKEWELVAAISRSGGSTYYADSVKGRFTISRDNAKNTVYLQMNSLKPEDTAVYYCAKSSGTLWITKYDYWGQGTQVTVSS | low polyreactivity
25 | QVQLVESGGGLVQAGGSLRLSCAASGRIFSKYAMGWYRQAPGKERELVAAITYSGGSTYYADSVKGRFTISRDNAKNTVYLQMNSLKPEDTAVYYCAAVHGTSYSKWFGYWGQGTQVTVSS | low polyreactivity
26 | QVQLVESGGGLVQAGGSLRLSCAASGFIFPYYDMGWYRQAPGKEREFVAAITKSGGRTYYADSVKGRFTISRDNAKNTVYLQMNSLKPEDTAVYYCNADDPDYLVSYRYDYWGQGTQVTVSS | low polyreactivity
27 | QVQLVESGGGLVQAGGSLRLSCAASGFTFIGNAMGWYRQAPGKERELVAAISSSGGRTYYADSVKGRFTISRDNAKNTVDLQMNSLKPEDTAVYYCATRQYRGVYYWGQGTQVTVSS | high polyreactivity
28 | QVQLVESGGGLVQAGGSLRLSCAASGSIFPSYAMGWYRQAPGKERELVAAISRSAGSTYYADSVKGRFTISRDNAKNTVYLQMNSLKPEDTAVYYCAADGYSSRYRYDYWGQGTQVTVSS | low polyreactivity
29 | QVQLVESGGGLVQAGGSLRLSCAASGSTFVRNAMGWYRQAPGKERELVAAITSSGGSTYYADSVKGRFTISRDNAKNTVYLQMNSLKPVDTAVYYCNARVPPQGWGPWKAFDYWGQGTQVTVSS | low polyreactivity
30 | QVQLVESGGGLVQAGGSLRLSCAASGFIFLYNAMGWDRQARGKERELVAAITSSGGTTYYADSVKGRFTISRDNAKNTVYLQINSLKPEDTAVYYCAARYTGRNGGSTTPEYDYWGQGTQVTVSS | low polyreactivity
31 | QVQLVESGGGLVQAGGSLRLSCAASGNTFSDYAMGWYRQAPGKERELVAAISSSGVRTYYADSVKGRFTISRDNAKNTVYLQMNSLKPEDTAVYYCNAGYVRRYYPASGYGYWGQGTQVTVSS | high polyreactivity
32 | QVQLVESGGGLVQAGGSRRLSCAASGSTFSDYAMGWYRQAPGKERELVAAISSSGGRTYYADSVKGRFTISRDNAKNTVYLQMNSLNPEDTAVYYCNARGYARGVSTGYDFWGQGTQVTVSS | high polyreactivity
33 | QVQLVESGGGLVQAGGSHRLSCAASGLIFPYNAMGWYRQAPGKERELVAAIDSGVTTYYADSVKGRFTISRDNAKNTVYLQMNSLKPEDTAVYYCAADGLPGPEGDSWGQGTQVTVSS | low polyreactivity
34 | QVQLVESGGGLVQAGGSLRLSCAASGSTIRYYAMGWYRQAPGKERQLVAYITTSGGTYYADSVKGRFTISRDNAKNTVYLQMHSLKPEDTAVYYCAARRQDYTYYRIYHFDYWGQGTQVTVSS | high polyreactivity
35 | QVQLVESGGGLVQAGGSLRLSCAASGYIFRLYTMGWYRQAPGKERELVAAISYSGGSTYYADSVKGRFTISRDNAKNTVYLQMNSLKPEDTAVYYCAAEDWRGYRWIRYGYWGQGTQVTVSS | low polyreactivity
36 | QVQLVESGGGLVQAGGSLRLSCAASGRIFGYNAMGWYRLAPGKERELVAAIRSGGSTNYADSVKGRFTISRDNAKNTVYLQMNSLKPEDTAVYYCAADDRWWYTPRPRYNYWGQGTQVTVSS | high polyreactivity
37 | QVQLVESGGGLVQAGGSLRLSCAASGRTFLVFAMGWYRQAPGKERELVAAITRDDNTNYADSVKGRFTISRDNAKNTVYLQMNSLKPEDTAVDYCAADALVYRLGNYYFIFDYWGQGTEVTVSS | low polyreactivity
38 | QVQLVESGGGLVQAGGSLRLSCAASGSIFIRYVMGWYRQAPGKERELVAAITGSGSRTYYADSVKGRFTISRDNAKNTVYLQMNSLKPEDTAVYYCAADWTKSRRYYWGQGTQVTVSS | high polyreactivity
39 | QVQLVESGGGLVQAAGSLRLSCAASGRIFTPYAMGWYRQAPGKERELVAVIRDGSTYYADSVKGRFTISRDNAKNTVYLQMNSLKPEDTAVYYCRYDIWVWWSGAYDYWGLGTQVTVSS | low polyreactivity
40 | QVQLVESGGCLVQAGGSLRLTCAASGRIFRGNVMGWYRQAPGKERELVAAISGRGGNTYYADSVKGRFTISRDNAKNTVYLQMNSLKPEDTAVYYCAATRKDDYQYGYWGQGTQVTVSS | high polyreactivity
41 | QVQLVESGGGLVQAGGSLRLSCAASGRIFRYYAMGWYRQAPGKDRELVAAIRSASSTYYADSVKGRFTISRDNAKNTVYVQMNSLKPEDTAVSYCAARLYGVYKRRYYYWGQGTQVTVSS | high polyreactivity
42 | QVQLVESGGGLVQAGGSLRLSCAASGRIFYDNAMGWYRQAPGKERELVAAISYSGDSTYYADSVKGRFTISRDNAKNTVYVQMNSLKPEDTAVYYCAAVYISQGAFAYDYWGQGTQVTVSS | low polyreactivity
43 | QVQLVESGGGLVQAGGSLRLSCAASGFSFYSYTMGWYRQAPGSVRELVAAISRSGGRTSYADSVKGRFTNSRDNAKNTVYLQMNSLKPDDTAVYYRNAVRLLQTFAEYEYWGQGTQVTVSS | high polyreactivity
